Common to all, as to conditions: both partners purified
Assay [1] has as its target T1, Purified MPK9‐V5‐His6 with the RVSF motif maintained (MPK9^RVSF), as used with PP1 (Arabidopsis thaliana, UniProt Q9LV37 1-510).
T1 construct: MAP kinase 9 (MPK9), Arabidopsis thaliana, At3g18040, synthesized gene codon optimized for bacteria, in pDEST42; Same construct as m2; also called MPK9^RVXF; MPK9^RVxF; source: E. coli BL21 (DE3) CodonPlus‐RIL, purified (Ni‐NTA)
T1 sequence (looked up): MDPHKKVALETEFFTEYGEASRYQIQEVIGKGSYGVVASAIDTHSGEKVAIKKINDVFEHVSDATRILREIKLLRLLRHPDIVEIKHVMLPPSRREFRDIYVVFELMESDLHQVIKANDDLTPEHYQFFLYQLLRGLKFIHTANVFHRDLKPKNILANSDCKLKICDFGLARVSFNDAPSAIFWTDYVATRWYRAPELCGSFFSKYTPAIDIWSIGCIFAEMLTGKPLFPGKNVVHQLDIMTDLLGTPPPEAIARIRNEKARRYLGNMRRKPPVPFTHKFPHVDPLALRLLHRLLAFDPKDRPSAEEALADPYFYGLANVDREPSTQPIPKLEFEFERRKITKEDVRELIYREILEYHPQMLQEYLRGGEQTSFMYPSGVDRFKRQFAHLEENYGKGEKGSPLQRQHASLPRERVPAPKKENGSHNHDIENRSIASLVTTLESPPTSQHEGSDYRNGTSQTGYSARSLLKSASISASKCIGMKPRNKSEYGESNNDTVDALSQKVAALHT
Put plainly: far-Western, overlay or dot blot; MPK9^RVXF and MPK9^RASA run on SDS‐PAGE, blotted to nitrocellulose, probed with PP1 (TOPP) isoforms (2 μg/mL) for 4 h in TBS plus 5% milk powder; PP1 detected with anti‐TOPP antibody.

For assay [2], the target named is T1, Purified MPK9‐V5‐His6 with the RVSF …. Put plainly: pull-down; TOPP5 (1 μg) and MPK9^RVXF or MPK9^RASA (5 μg) incubated 1 h at RT, then with BSA‐blocked Ni‐NTA 1 h at RT; washed with 50 mM HEPES pH 7.5, 300 mM NaCl, 0.1% Tween 20; western blot (V5, pan‐TOPP).
In assay [3] the target is T2, MPK9‐V5‐His6, full‐length, activated/phosphorylated (MPK9^TDY) (Arabidopsis thaliana, UniProt Q9LV37 1-510, phospho-threonine and phospho-tyrosine of the activation loop TDY motif (autophosphorylated; dual phosphorylated pTxpY)).
T2 construct: MAP kinase 9 (MPK9), Arabidopsis thaliana, At3g18040, synthesized gene codon optimized for bacteria, in pDEST42; Printed as MPK9-V5-His6 (tags written after the name); also called MAP kinase 9; ATMPK9; source: E. coli BL21 (DE3) CodonPlus‐RIL, purified (Ni‐NTA), then autophosphorylated with Mg‐ATP
T2 sequence (looked up): T1 sequence (looked up)
Put plainly: far-Western, overlay or dot blot; purified activated MPKs dotted onto nitrocellulose, blocked, overlaid with purified RLPH2 (1.5 μg/mL), detected with anti‐RLPH2 antibody; in triplicate.

B1: Arabidopsis PP1 isoform 3 (TOPP3) (enzyme, Arabidopsis thaliana, UniProt P48483 1-322, looked up)
chain: MEDSVVDDVIKRLLGAKNGKTTKQVQLTEAEIKHLCSTAKQIFLTQPNLLELEAPIKICGDTHGQFSDLLRLFEYGGYPPAANYLFLGDYVDRGKQSVETICLLLAYKIKYKENFFLLRGNHECASINRIYGFYDECKKRYSVRVWKIFTDCFNCLPVAALIDEKILCMHGGLSPELKHLDEIRNIPRPADIPDHGLLCDLLWSDPDKDIEGWGENDRGVSYTFGADKVEEFLQTHDLDLICRAHQVVEDGYEFFANRQLVTIFSAPNYCGEFDNAGAMMSVDDSLTCSFQILKASEKKGNFGFGKNAGRRGTPPRKGGGKG
notes: Type one protein phosphatase 3 (TOPP3), PP1 catalytic subunit, Arabidopsis thaliana; source: recombinant, purified on microcystin‐Sepharose (as in Templeton et al. 2011)
In the case of B1, in assay [1], the binding result is “binds”.

B2: Arabidopsis PP1 isoform 9 (TOPP9) (enzyme, Arabidopsis thaliana, UniProt Q9M9W3 1-318, looked up)
chain: MMTSMEGMMEMGVLDDIIRRLLEGKGGKQVQLSEVEIRQLCVNARQIFLSQPNLLELHAPIRICGDIHGQYQDLLRLFEYGGYPPSANYLFLGDYVDRGKQSLETICLLLAYKIRYPSKIFLLRGNHEDAKINRIYGFYDECKRRFNVRLWKIFTDCFNCLPVAALIDEKILCMHGGLSPELENLGQIREIQRPTEIPDNGLLCDLLWSDPDQKNEGWTDSDRGISCTFGADVVADFLDKNDLDLICRGHQVVEDGYEFFAKRRLVTIFSAPNYGGEFDNAGALLSVDQSLVCSFEILKPAPASSTNPLKKVPKMGKS
notes: Type one protein phosphatase 9 (TOPP9), PP1 catalytic subunit, Arabidopsis thaliana; source: recombinant, purified on microcystin‐Sepharose (as in Templeton et al. 2011)
Consider B2, for which the binding result in assay [1] is recorded as “binds”.

B3: Arabidopsis PP1 isoform 1 (TOPP1) (enzyme, Arabidopsis thaliana, UniProt P30366 1-318, looked up)
chain: MAEKPAQEQEQKRAMEPAVLDDIIRRLVEFRNTRPGSGKQVHLSEGEIRQLCAVSKEIFLQQPNLLELEAPIKICGDIHGQYSDLLRLFEYGGFPPEANYLFLGDYVDRGKQSLETICLLLAYKIKYPENFFLLRGNHESASINRIYGFYDECKRRFNVRLWKIFTDCFNCLPVAALIDDRILCMHGGISPELKSLDQIRNIARPMDIPESGLVCDLLWSDPSGDVGWGMNDRGVSYTFGADKVAEFLEKHDMDLICRAHQVVEDGYEFFAERQLVTVFSAPNYCGEFDNAGAMMSIDESLMCSFQILKPSEKKSPFL
notes: Type one protein phosphatase 1 (TOPP1), PP1 catalytic subunit, Arabidopsis thaliana; source: recombinant, purified on microcystin‐Sepharose (as in Templeton et al. 2011)
Turning to B3, the binding result in assay [1] is recorded as “binds”.

B4: Arabidopsis PP1 isoform 5 (TOPP5) (enzyme, Arabidopsis thaliana, UniProt P48485 1-312, looked up)
chain: MAQQGQGSMDPAVLDDIIRRLLDYRNPKAGTKQAMLNDSEIRQLCFVSREIFLQQPCLLELAAPVKICGDIHGQYSDLLRLFEYGGFPPAANYLFLGDYVDRGKQSLETICLLLAYKIKYPENFFLLRGNHECASINRIYGFYDECKRRFNVKLWKVFTDTFNCLPVAAVIDEKILCMHGGLSPELINVEQIKNIERPTDVPDAGLLCDLLWSDPSKDVKGWGMNDRGVSYTFGADKVAEFLIKNDMDLVCRAHQVVEDGYEFFADRQLVTMFSAPNYCGEFDNAGALMSVDESLMCSFQILKPVDRRSRFF
notes: Type one protein phosphatase 5 (TOPP5), PP1 catalytic subunit, Arabidopsis thaliana; also called AtPP1; source: recombinant, purified on microcystin‐Sepharose (as in Templeton et al. 2011)
With B4, the binding result in assay [2] is listed as “binds”.

B5: Arabidopsis PP1 isoform 2 (TOPP2) (enzyme, Arabidopsis thaliana, UniProt P48482 1-312, looked up)
chain: MAQQGQGSMDPAALDDIIRRLLDYRNPKPGTKQAMLNESEIRQLCIVSREIFLQQPNLLELEAPIKICGDIHGQYSDLLRLFEYGGFPPTANYLFLGDYVDRGKQSLETICLLLAYKIKYPENFFLLRGNHECASINRIYGFYDECKRRFSVRLWKVFTDSFNCLPVAAVIDDKILCMHGGLSPDLTNVEQIKNIKRPTDVPDSGLLCDLLWSDPSKDVKGWGMNDRGVSYTFGPDKVAEFLIKNDMDLICRAHQVVEDGYEFFADRQLVTIFSAPNYCGEFDNAGAMMSVDESLMCSFQILKPADRKPRFL
notes: Type one protein phosphatase 2 (TOPP2), PP1 catalytic subunit, Arabidopsis thaliana; source: recombinant, purified on microcystin‐Sepharose (as in Templeton et al. 2011)
B5: the binding result in assay [1] is on record as “binds”.

B6: Arabidopsis thaliana Rhizobiales‐like phosphatase 2 (RLPH2‐V5‐His6) (enzyme, UniProt Q9SR62 1-309, looked up)
chain: MAQKPRTVICVGDIHGYISKLNNLWLNLQSAIDPSDFSSALVIFLGDYCDRGPETRKVIDFLISLPEKHPDQTHVFLAGNHDFAFSGFLGLLPRPSDGSDLKDTWKEYSKSEETEGWYTGEGFEDMHLQGRRWAGKIKATFNSVKGMAYKGSIYDAGSTFESYGVPHGSSDLMKAVPESHKKFLTNMVWVHEEDDVCIETEEGLKHCKLIAVHAGLEKGNNVEEQLKLLRAKDTSISKIQHLSGRKNVWDIPQELDDKHTVVVSGHHGKLHIDGMRLIIDEGGGFPDKPVAAIVLPSKKIIRDTDNLSS
notes: Rhizobiales-like phosphatase 2 (RLPH2), Arabidopsis thaliana; Printed as RLPH2-V5-His6 (tags written after the name); source: bacterially expressed, purified (as in Uhrig et al. 2016)
Consider B6, for which the binding result in assay [3] is on record as “binds”.

B7: Arabidopsis PP1 isoform 8 (TOPP8) (enzyme, Arabidopsis thaliana, UniProt O82734 1-324, looked up)
chain: MMTSMEGMVEKGVLDDIIRRLLEGKGGKQVQLSESEIRQLCFNARQIFLSQPNLLDLHAPIRICGDIHGQYQDLLRLFEYGGYPPSANYLFLGDYVDRGKQSLETICLLLAYKIRYPSKIYLLRGNHEDAKINRIYGFYDECKRRFNVRLWKVFTDCFNCLPVAALIDEKILCMHGGLSPDLDNLNQIREIQRPIEIPDSGLLCDLLWSDPDQKIEGWADSDRGISCTFGADKVAEFLDKNDLDLICRGHQVVEDGYEFFAKRRLVTIFSAPNYGGEFDNAGALLSVDESLVCSFEIMKPAPASSSHPLKKDFHNRTLGYNLSA
notes: Type one protein phosphatase 8 (TOPP8), PP1 catalytic subunit, Arabidopsis thaliana; source: recombinant, purified on microcystin‐Sepharose (as in Templeton et al. 2011)
For B7, the binding result in assay [1] is “binds”.

B8: Arabidopsis PP1 isoform 4 (TOPP4) (enzyme, Arabidopsis thaliana, UniProt P48484 1-321, looked up)
chain: MATTTTTQGQQTAIDSAVLDDIIRRLTEVRLARPGKQVQLSEAEIKQLCTTARDIFLQQPNLLELEAPIKICGDIHGQYSDLLRLFEYGGFPPSANYLFLGDYVDRGKQSLETICLLLAYKIKYPGNFFLLRGNHECASINRIYGFYDECKRRFNVRVWKVFTDCFNCLPVAALIDDKILCMHGGLSPDLDHLDEIRNLPRPTMIPDTGLLCDLLWSDPGKDVKGWGMNDRGVSYTFGPDKVSEFLTKHDLDLVCRAHQVVEDGYEFFADRQLVTVFSAPNYCGEFDNAGAMMSVDENLMCSFQILKPAEKKTKFMMSTKI
notes: Type one protein phosphatase 4 (TOPP4), PP1 catalytic subunit, Arabidopsis thaliana; source: recombinant, purified on microcystin‐Sepharose (as in Templeton et al. 2011)
In the case of B8, the binding result in assay [1] was “binds”.

Source of the values: article PMC12817480, “Phospho‐Proteomics Identifies D‐Group MAP Kinases as Substrates of the Arabidopsis Tyrosine Phosphatase RLPH2” (Plant Direct, 2026).
